Measured values taken from patent US20190352356A1.
Numbering of substitutions follows the chain as printed. Names and notes keep the numbering of the source. Bridges are numbered along the chain shown (N, C = ends). Where no end group is shown, it is not given here.

Tests used:
[1] = target: human amylin receptor (hAMY1(a)) (human) (UniProt P30988); assay: cell-based or functional assay
[2] = target: human calcitonin receptor (hCT(a)) (human) (UniProt P30988); assay: cell-based or functional assay
Sequence of human calcitonin receptor (hCT(a)) (human) (P30988 25-474): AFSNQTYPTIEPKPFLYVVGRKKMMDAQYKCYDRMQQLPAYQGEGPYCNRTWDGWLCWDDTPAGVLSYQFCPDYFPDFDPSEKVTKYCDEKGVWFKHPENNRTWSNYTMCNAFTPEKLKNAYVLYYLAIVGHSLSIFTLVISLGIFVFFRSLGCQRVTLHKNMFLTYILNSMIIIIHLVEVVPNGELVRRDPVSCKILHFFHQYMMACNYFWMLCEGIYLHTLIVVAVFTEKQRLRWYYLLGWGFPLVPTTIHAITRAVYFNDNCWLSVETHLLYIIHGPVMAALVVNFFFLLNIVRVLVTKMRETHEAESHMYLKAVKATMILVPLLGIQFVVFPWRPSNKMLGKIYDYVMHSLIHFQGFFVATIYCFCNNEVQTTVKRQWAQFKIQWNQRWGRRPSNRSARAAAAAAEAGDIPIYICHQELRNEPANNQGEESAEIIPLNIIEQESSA

Sequence of human amylin receptor (hAMY1(a)) (human) (P30988 25-474, chain 1 of 2): as the sequence (P30988 25-474) above
Sequence of human amylin receptor (hAMY1(a)) (human) (O60894 27-148, chain 2 of 2, further chain): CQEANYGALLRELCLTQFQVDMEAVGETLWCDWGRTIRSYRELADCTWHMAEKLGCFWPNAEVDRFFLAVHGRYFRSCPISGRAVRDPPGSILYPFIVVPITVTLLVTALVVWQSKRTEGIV

B1: exemplary mutant-hIAPP polypeptide mutant analog 4 (N22K, S28P, N31K as SEQ ID NO: 22 is printed) (peptide)
peptide: KCNTATCATQRLANFLVHSSNKFGAILPSTKVGSNTY-NH2
modifications: disulfide 2-7; not fully specified; printed as KCNTATCATQRLANFLVHSSNKFGAILPSTKVGSNTY-NH2
With B1 the pEC50 of cAMP production (pEC50 (-log10(EC50))) [1] was 9.43 and the pEC50 of cAMP production (pEC50 (-log10(EC50))) [2] was 8.55.

B2: exemplary mutant-hIAPP polypeptide mutant analog 1 (N22K, G24P, I26P, N31K) (peptide)
peptide: KCNTATCATQRLANFLVHSSNKFPAPLSSTKVGSNTY
HELM: PEPTIDE1{K.C.N.T.A.T.C.A.T.Q.R.L.A.N.F.L.V.H.S.S.N.K.F.P.A.P.L.S.S.T.K.V.G.S.N.T.Y.[am]}$PEPTIDE1,PEPTIDE1,2:R3-7:R3$$$V2.0; N-terminus assumed
SMILES: CC(C)C[C@H](NC(=O)[C@H](CCCNC(=N)N)NC(=O)[C@H](CCC(N)=O)NC(=O)[C@@H](NC(=O)[C@H](C)NC(=O)[C@@H]1CSSC[C@H](NC(=O)[C@@H](N)CCCCN)C(=O)N[C@@H](CC(N)=O)C(=O)N[C@@H]([C@@H](C)O)C(=O)N[C@@H](C)C(=O)N[C@@H]([C@@H](C)O)C(=O)N1)[C@@H](C)O)C(=O)N[C@@H](C)C(=O)N[C@@H](CC(N)=O)C(=O)N[C@@H](Cc1ccccc1)C(=O)N[C@@H](CC(C)C)C(=O)N[C@H](C(=O)N[C@@H](Cc1c[nH]cn1)C(=O)N[C@@H](CO)C(=O)N[C@@H](CO)C(=O)N[C@@H](CC(N)=O)C(=O)N[C@@H](CCCCN)C(=O)N[C@@H](Cc1ccccc1)C(=O)N1CCC[C@H]1C(=O)N[C@@H](C)C(=O)N1CCC[C@H]1C(=O)N[C@@H](CC(C)C)C(=O)N[C@@H](CO)C(=O)N[C@@H](CO)C(=O)N[C@H](C(=O)N[C@@H](CCCCN)C(=O)N[C@H](C(=O)NCC(=O)N[C@@H](CO)C(=O)N[C@@H](CC(N)=O)C(=O)N[C@H](C(=O)N[C@@H](Cc1ccc(O)cc1)C(N)=O)[C@@H](C)O)C(C)C)[C@@H](C)O)C(C)C
B2 was tested, and the pEC50 of cAMP production (pEC50 (-log10(EC50))) [1] was 8.47 and the pEC50 of cAMP production (pEC50 (-log10(EC50))) [2] was 8.3.

B3: exemplary mutant-hIAPP polypeptide mutant analog 2 (N21K, G24P, I26P, N35K) (peptide)
peptide: B2 peptide with N21K, K22N, K31N, N35K
HELM: PEPTIDE1{K.C.N.T.A.T.C.A.T.Q.R.L.A.N.F.L.V.H.S.S.K.N.F.P.A.P.L.S.S.T.N.V.G.S.K.T.Y.[am]}$PEPTIDE1,PEPTIDE1,2:R3-7:R3$$$V2.0; N-terminus assumed
SMILES: CC(C)C[C@H](NC(=O)[C@H](CCCNC(=N)N)NC(=O)[C@H](CCC(N)=O)NC(=O)[C@@H](NC(=O)[C@H](C)NC(=O)[C@@H]1CSSC[C@H](NC(=O)[C@@H](N)CCCCN)C(=O)N[C@@H](CC(N)=O)C(=O)N[C@@H]([C@@H](C)O)C(=O)N[C@@H](C)C(=O)N[C@@H]([C@@H](C)O)C(=O)N1)[C@@H](C)O)C(=O)N[C@@H](C)C(=O)N[C@@H](CC(N)=O)C(=O)N[C@@H](Cc1ccccc1)C(=O)N[C@@H](CC(C)C)C(=O)N[C@H](C(=O)N[C@@H](Cc1c[nH]cn1)C(=O)N[C@@H](CO)C(=O)N[C@@H](CO)C(=O)N[C@@H](CCCCN)C(=O)N[C@@H](CC(N)=O)C(=O)N[C@@H](Cc1ccccc1)C(=O)N1CCC[C@H]1C(=O)N[C@@H](C)C(=O)N1CCC[C@H]1C(=O)N[C@@H](CC(C)C)C(=O)N[C@@H](CO)C(=O)N[C@@H](CO)C(=O)N[C@H](C(=O)N[C@@H](CC(N)=O)C(=O)N[C@H](C(=O)NCC(=O)N[C@@H](CO)C(=O)N[C@@H](CCCCN)C(=O)N[C@H](C(=O)N[C@@H](Cc1ccc(O)cc1)C(N)=O)[C@@H](C)O)C(C)C)[C@@H](C)O)C(C)C
For B3, the pEC50 of cAMP production (pEC50 (-log10(EC50))) [1] was 8.75 and the pEC50 of cAMP production (pEC50 (-log10(EC50))) [2] was 7.97.

B4: exemplary mutant-hIAPP polypeptide mutant analog 3 (N21K, N35K) (peptide)
peptide: KCNTATCATQRLANFLVHSSKNFGAILSSTNVGSKTY
HELM: PEPTIDE1{K.C.N.T.A.T.C.A.T.Q.R.L.A.N.F.L.V.H.S.S.K.N.F.G.A.I.L.S.S.T.N.V.G.S.K.T.Y.[am]}$PEPTIDE1,PEPTIDE1,2:R3-7:R3$$$V2.0; N-terminus assumed
SMILES: CC[C@H](C)[C@H](NC(=O)[C@H](C)NC(=O)CNC(=O)[C@H](Cc1ccccc1)NC(=O)[C@H](CC(N)=O)NC(=O)[C@H](CCCCN)NC(=O)[C@H](CO)NC(=O)[C@H](CO)NC(=O)[C@H](Cc1c[nH]cn1)NC(=O)[C@@H](NC(=O)[C@H](CC(C)C)NC(=O)[C@H](Cc1ccccc1)NC(=O)[C@H](CC(N)=O)NC(=O)[C@H](C)NC(=O)[C@H](CC(C)C)NC(=O)[C@H](CCCNC(=N)N)NC(=O)[C@H](CCC(N)=O)NC(=O)[C@@H](NC(=O)[C@H](C)NC(=O)[C@@H]1CSSC[C@H](NC(=O)[C@@H](N)CCCCN)C(=O)N[C@@H](CC(N)=O)C(=O)N[C@@H]([C@@H](C)O)C(=O)N[C@@H](C)C(=O)N[C@@H]([C@@H](C)O)C(=O)N1)[C@@H](C)O)C(C)C)C(=O)N[C@@H](CC(C)C)C(=O)N[C@@H](CO)C(=O)N[C@@H](CO)C(=O)N[C@H](C(=O)N[C@@H](CC(N)=O)C(=O)N[C@H](C(=O)NCC(=O)N[C@@H](CO)C(=O)N[C@@H](CCCCN)C(=O)N[C@H](C(=O)N[C@@H](Cc1ccc(O)cc1)C(N)=O)[C@@H](C)O)C(C)C)[C@@H](C)O
B4 gave a pEC50 of cAMP production (pEC50 (-log10(EC50))) [1] of 9.13 and a pEC50 of cAMP production (pEC50 (-log10(EC50))) [2] of 8.62.
